From the supplement of paper PMC10724198

How the values were obtained:
Saccharomyces cerevisiae [1] = assay: protein stability index of tFT-peptide fusion in wild type (PSI (0-1 scale)); higher = more stable (slower turnover); details: genetic background: wild type
Saccharomyces cerevisiae [2] = assay: protein stability index of tFT-peptide fusion in deletion strain of DOA10 (PSI (0-1 scale)); higher = more stable (slower turnover)
Description: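 MPS profiling in S. cerevisiae of two library types built from selected 12-aa C-degron peptides (IN1, IN2, LN1, LN3, VN2, R1-R5, W1-W3, Atg1 and Rpa12 C-termini): saturation mutagenesis libraries and C-terminal +1 capping libraries (13 aa). Each peptide is fused to the C-terminus of a sfGFP-mCherry timer, after a GGGS linker. Cells are FACS-sorted into 8 mCherry/sfGFP bins and sequenced. PSI runs from 0 (unstable) to 1 (stable), measured once in wild type and in the das1Δ or doa10Δ background.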

Saccharomyces cerevisiae [3] = assay: protein stability index of tFT-peptide fusion in deletion strain of DAS1 (PSI (0-1 scale)); higher = more stable (slower turnover)
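Wherever protein stability index of tFT-peptide fusion in deletion strain of DAS1 is given: PSI is a weighted mean of each variant's read distribution over the sorted stability bins, computed only for variants having over 10 reads in total.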
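Wherever protein stability index of tFT-peptide fusion in deletion strain of DOA10 is given: PSI per variant is the weighted mean of its sequencing read distribution over the sorted stability bins, counting only variants with over 10 reads summed across bins.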
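Wherever protein stability index of tFT-peptide fusion in wild type is given: PSI derived as read-weighted mean over the 8 sorting bins, only variants exceeding 10 total reads kept, mCherry placed adjacent to the peptide and sfGFP distal.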

Sequence | protein stability index (Saccharomyces cerevisiae [1]) | protein stability index (Saccharomyces cerevisiae [2]) | protein stability index (Saccharomyces cerevisiae [3])
AATLPMCPLLLR | 0.377 | 0.684 | 
AIDLPMCPLLLR | 0.319 | 0.651 | 
AIQLPMCPLLLR | 0.213 | 0.649 | 
AITLEMCPLLLR | 0.372 | 0.667 | 
AITLHMCPLLLR | 0.271 | 0.62 | 
AITLPCCPLLLR | 0.236 | 0.659 | 
AITLPMCNLLLR | 0.29 | 0.683 | 
AITLPMCPFLLR | 0.624 | 0.661 | 
AITLPMCPHLLR | 0.645 | 0.687 | 
AITLPMCPLALR | 0.577 | 0.643 | 
AITLPMCPLELR | 0.641 | 0.682 | 
AITLPMCPLLCR | 0.238 | 0.265 | 
AITLPMCPLLIR | 0.219 | 0.427 | 
AITLPMCPLLLQ | 0.567 | 0.654 | 
AITLPMCPLLLRG | 0.31 | 0.55 | 
AITLPMCPLLLW | 0.436 | 0.646 | 
AITLPMCPLLLY | 0.404 | 0.517 | 
AITLPMCPLLNR | 0.644 | 0.671 | 
AIWLPMCPLLLR | 0.224 | 0.657 | 
CAVSLPILLFFR | 0.0547 | 0.627 | 
CLESLPILLFFR | 0.192 | 0.65 | 
CLGSLPILLFFR | 0.0966 | 0.628 | 

Sequence | protein stability index (Saccharomyces cerevisiae [1]) | protein stability index (Saccharomyces cerevisiae [2]) | protein stability index (Saccharomyces cerevisiae [3])
CLMSLPILLFFR | 0.0514 | 0.591 | 
CLVDLPILLFFR | 0.0636 | 0.635 | 
CLVILPILLFFR | 0.0975 | 0.456 | 
CLVSDPILLFFR | 0.589 | 0.656 | 
CLVSEPILLFFR | 0.499 | 0.643 | 
CLVSLPIGLFFR | 0.101 | 0.674 | 
CLVSLPILEFFR | 0.637 | 0.672 | 
CLVSLPILLCFR | 0.0846 | 0.564 | 
CLVSLPILLFFN | 0.118 | 0.288 | 
CLVSLPILLFFRC | 0.0599 | 0.45 | 
CLVSLPILLFFRG | 0.0927 | 0.564 | 
CLVSLPILLFFRI | 0.0568 | 0.469 | 
CLVSLPILLFFRM | 0.0495 | 0.458 | 
CLVSLPILLFFS | 0.297 | 0.467 | 
RLIQPLPVQFLNC | 0.486 |  | 0.635
RLIQPLPVQFLNI | 0.627 |  | 0.644
RLIQPLPVQFLNL | 0.636 |  | 0.656
RLIQPLPVQFLNS | 0.385 |  | 0.658
RLIQPLPVQFLNT | 0.614 |  | 0.639
RLIQPLPVQFLNV | 0.599 |  | 0.621
RLIQPLPVQFLT | 0.223 |  | 0.59
RLIQPLPVQFQN | 0.366 |  | 0.548

Sequence | protein stability index (Saccharomyces cerevisiae [1]) | protein stability index (Saccharomyces cerevisiae [2]) | protein stability index (Saccharomyces cerevisiae [3])
RLIQPLPVQNLN | 0.447 |  | 0.645
RLIQPLPVQPLN | 0.587 |  | 0.579
RLIQPLPYQFLN | 0.0818 |  | 0.621
RLIQPLRVQFLN | 0.06 |  | 0.593
RLIQPLWVQFLN | 0.0634 |  | 0.569
RLIQPMPVQFLN | 0.0562 |  | 0.607
RLIQPPPVQFLN | 0.06 |  | 0.641
RLIQPTPVQFLN | 0.192 |  | 0.563
RLIQRLPVQFLN | 0.0385 |  | 0.646
RLIQSLPVQFLN | 0.0478 |  | 0.574
RLIQVLPVQFLN | 0.0583 |  | 0.611
RLISPLPVQFLN | 0.0608 |  | 0.622
RLIYPLPVQFLN | 0.0272 |  | 0.58
RLWQPLPVQFLN | 0.069 |  | 0.608
RYIQPLPVQFLN | 0.0617 |  | 0.564
VAGAVGGWRLVG | 0.142 |  | 0.681
VCGAVGGWRLVG | 0.118 |  | 0.686
VIGAVGGWRLVG | 0.115 |  | 0.689
VRDAVGGWRLVG | 0.172 |  | 0.654
VRFAVGGWRLVG | 0.0977 |  | 0.678
VRGAFGGWRLVG | 0.144 |  | 0.668
VRGAHGGWRLVG | 0.146 |  | 0.662

Sequence | protein stability index (Saccharomyces cerevisiae [1]) | protein stability index (Saccharomyces cerevisiae [2]) | protein stability index (Saccharomyces cerevisiae [3])
VRGAMGGWRLVG | 0.202 |  | 0.746
VRGASGGWRLVG | 0.172 |  | 0.674
VRGAVCGWRLVG | 0.125 |  | 0.673
VRGAVGGQRLVG | 0.643 |  | 0.677
VRGAVGGVRLVG | 0.645 |  | 0.654
VRGAVGGWCLVG | 0.441 |  | 0.674
VRGAVGGWGLVG | 0.28 |  | 0.616
VRGAVGGWPLVG | 0.596 |  | 0.692
VRGAVGGWREVG | 0.504 |  | 0.654
VRGAVGGWRLVGA | 0.524 |  | 0.692
VRGAVGGWRLVGD | 0.646 |  | 0.694
VRGAVGGWRLVGF | 0.666 |  | 0.693
VRGAVGGWRLVGY | 0.638 |  | 0.682
VRGAVGGWRLVK | 0.668 |  | 0.689
VRGAVGGWRQVG | 0.189 |  | 0.677
VRGAVGSWRLVG | 0.157 |  | 0.68
VRGGVGGWRLVG | 0.206 |  | 0.683
VRGSVGGWRLVG | 0.14 |  | 0.681
VRGYVGGWRLVG | 0.174 |  | 0.69
VRHAVGGWRLVG | 0.116 |  | 0.671
YDKRNHLIKLLN | 0.138 |  | 0.581
